Where a chain is given by its changes, count along the chain named. * marks the point of attachment. CH2Cl = ClC*
Assays:
HGFA = biological target: T1, HGFA (Homo sapiens, UniProt Q04756); assay: Ab40 binding to HGFA in the presence of active site inhibitors (surface plasmon resonance); conditions: active site inhibitor present; result in words
T1 construct: His6 behind an AAA linker) (C); made in house; host or cells: baculovirus - insect cell expression system
T1 sequence (Q04756 373-655): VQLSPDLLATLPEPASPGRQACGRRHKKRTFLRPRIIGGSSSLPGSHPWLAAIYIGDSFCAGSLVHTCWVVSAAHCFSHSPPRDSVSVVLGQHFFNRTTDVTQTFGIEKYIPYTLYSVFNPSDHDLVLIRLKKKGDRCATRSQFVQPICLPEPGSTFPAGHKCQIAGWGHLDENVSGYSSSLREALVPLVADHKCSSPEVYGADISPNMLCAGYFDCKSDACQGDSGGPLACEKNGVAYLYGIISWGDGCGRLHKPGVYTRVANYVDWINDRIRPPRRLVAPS
Text: FIG. 3: Effects of active site inhibitors on antibody binding to HGFA. (a-b, e-f) Surface plasmon resonance (BIAcore) measurements of binding to immobilized antibodies, Ab40 (a-b) or Ab40.ΔTrp (e-f), after co-injection of HGFA (a,e) or HGFA-KQLR (b, f) complex (“KQLR” disclosed as SEQ ID NO: 21). (c) Competition binding (BIAcore) of HGFA to immobilized Ab40 in presence of different concentrations of KD1. (d) Competition binding ELISA measuring binding of HGFA to biotinylated KD1 in the presence of increasing antibody concentrations.
Antibody reformatting and determination of dissociation rate constants to HGFA: Anti-HGFA Fabs were reformatted into human IgG1 by cloning the VL and VH regions of individual clones into LPG3 and LPG4 vector, respectively (Liang et al, 2007). The full-length antibodies were transiently expressed in Chinese Hamster Ovary cells and purified on a protein-A column. […] Association rates (kon) and dissociation rates (koff) were obtained by using a simple one-to-one Langmuir binding model (BIAEvaluation) and the equilibrium dissociation constants (KD) were calculated (koff/kon). […] The values of Req (20-80% of Rmax) were calculated and plotted individually against C (concentration of HGFA or HGFA-KQLR (“KQLR” disclosed as SEQ ID NO: 21)) using BIAEvaluation Software to determine KD at the steady state analysis. […]

[1] = biological target: HGFA (Val373-Ser655 plus tag …) (human) (UniProt Q04756); assay: cell-based or functional assay
[2] = biological target: HGFA (Val373-Ser655 plus tag …) (human) (UniProt Q04756); assay: SPR (BIAcore), IgG captured by anti-human IgG, HGFA injected
[3] = biological target: T2, HGFA (Val373-Ser655 plus tag …) (human, UniProt Q04756 373-655); assay: SPR (BIAcore)
T2 construct: Made in baculovirus-insect cells, active-site titrated
T2 sequence: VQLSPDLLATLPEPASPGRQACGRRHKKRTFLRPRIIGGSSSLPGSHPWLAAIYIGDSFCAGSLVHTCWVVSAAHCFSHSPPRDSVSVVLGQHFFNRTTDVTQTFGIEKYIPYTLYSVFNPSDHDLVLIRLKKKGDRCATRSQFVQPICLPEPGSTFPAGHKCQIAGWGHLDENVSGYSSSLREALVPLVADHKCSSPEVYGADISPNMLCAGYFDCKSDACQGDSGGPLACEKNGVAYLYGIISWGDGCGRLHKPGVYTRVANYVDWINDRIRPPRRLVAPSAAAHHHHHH

HGFA-KQLR complex [4] = biological target: T3, HGFA-KQLR complex (human, UniProt Q04756 373-655, N-terminal acetyl; C-terminal chloromethyl ketone, reacted with Ser195 and His57 of HGFA; Ser195 and His57 (chymotrypsinogen numbering) covalently linked to Ac-KQLR-cmk); assay: SPR (BIAcore)
T3 construct: Made by incubating HGFA with a two fold molar excess of Ac-KQLR-cmk for 2 hours, then size exclusion chromatography

[5] = biological target: T2, HGFA (Val373-Ser655 plus tag …); assay: cell-based or functional assay
[6] = biological target: T2, HGFA (Val373-Ser655 plus tag …); assay: SPR (BIAcore), IgG captured by anti-human IgG, HGFA injected
HGFA-KQLR complex [7] = biological target: T3, HGFA-KQLR complex; assay: SPR (BIAcore), IgG captured by anti-human IgG, HGFA-KQLR complex injected
[8] = biological target: T2, HGFA (Val373-Ser655 plus tag …); assay: competition ELISA: plate coated with HGFA, incubated with increasing Ab40, then 1 nM biotinylated KD1 (blocked ligand) detected with streptavidin-HRP
[9] = biological target: T2, HGFA (Val373-Ser655 plus tag …); assay: SPR (BIAcore), steady state affinity, IgG captured, HGFA injected
HGFA-KQLR complex [10] = biological target: T3, HGFA-KQLR complex; assay: SPR (BIAcore), steady state affinity, IgG captured, HGFA-KQLR complex injected

**Q.** With `N=C(N)c1ccccc1` [Benzamidine] as the molecule, how does the “interference with binding of Ab40 to HGFA” value (HGFA) read?
**A.** did not interfere

**Q.** For “Ac-KQLR-chloromethyl ketone (Ac-KQLR-CH2Cl; SMILES CC(=O)N[C@@H](CCCCN)C(=O)N[C@@H](CCC(N)=O)C(=O)N[C@@H](CC(C)C)C(=O)N[C@@H](CCCNC(=N)N)C(=O)CCl) [Ac-KQLR-cmk]”, which “interference with binding of Ab40 to HGFA” value (HGFA) is on record?
**A.** interfered

B1: Ab39 (antibody, from a related filing, human IgG1, V domains shown)
VH: EVQLVESGGGLVQPGGSLRLSCAASGFTFNGTYIHWVRQAPGKGLEWVGGIYPAGGATYYADSVKGRFTISRDNSKNTLYLQMNSLRAEDTAVYYCAKWWAWPAFDYWGQGTLVTVSS
VL: DIQMTQSPSSLSASVGDRVTITCRASQDVSTAVAWYQQKPGKAPKLLIYSASFLYSGVPSRFSGSGSGTDFTLTISSLQPEDFATYYCQQSYTTPPTFGQGTKVEIKR
**Q.** For B1, which Km^app of S-2266 hydrolysis at 1 µM Ab39 (control Km=0.25 mM) [1] is on record?
**A.** 910 µM

**Q.** And the Vmax^app of S-2266 hydrolysis at 1 µM Ab39 (control Vmax=0.99 µM pNA/min) [1]?
**A.** 0.97 µM pNA/min

**Q.** What about the Kd [2] of the same molecule?
**A.** 10.3 nM

**Q.** And the koff [2]?
**A.** 0.0053 s⁻¹

**Q.** What about the kon [2] of the same molecule?
**A.** 520000 M⁻¹ s⁻¹

B2: Ab40 (antibody, V domains shown)
VH: B1 VH with F29I, R72A, N74T, L79A
VL: B1 VL with Y92N, T93R, T94A, P96A
**Q.** B2 was tested. Which “fold improvement in binding affinity over Ab39” value [3] did it give?
**A.** 64 fold

**Q.** What about the “fold decrease in affinity compared to HGFA” value (HGFA-KQLR complex [4]) of the same molecule?
**A.** 8 fold

**Q.** What about the “IC50 (read off the curve), HGFA fractional activity vi/vo on S-2266” value [5] of the same molecule?
**A.** ~8 nM

**Q.** And the Kd [6]?
**A.** 0.16 nM

**Q.** What about the koff [6] of the same molecule?
**A.** 0.000175 s⁻¹

**Q.** And the kon [6]?
**A.** 1.08e+06 M⁻¹ s⁻¹

**Q.** What about the Kd (HGFA-KQLR complex [7]) of the same molecule?
**A.** 1.35 nM

**Q.** What about the koff (HGFA-KQLR complex [7]) of the same molecule?
**A.** 0.00043 s⁻¹

**Q.** What about the kon (HGFA-KQLR complex [7]) of the same molecule?
**A.** 320000 M⁻¹ s⁻¹

**Q.** What about the “IC50 (read off the curve)” value [8] of the same molecule?
**A.** ~1 nM

B3: Ab40.ΔTrp (antibody, V domains shown)
VH: EVQLVESGGGLVQPGGSLRLSCAASGFTINGTYIHWVRQAPGKGLEWVGGIYPAGGATYYADSVKGRFTISADTSKNTAYLQMNSLRAEDTAVYYCAKWAWPAFDYWGQGTLVTVSS
VL: B1 VL with Y92N, T93R, T94A, P96A
**Q.** B3 was tested. Which Kd [9] did it give?
**A.** 150 nM

**Q.** What about the Kd (HGFA-KQLR complex [10]) of the same molecule?
**A.** 161 nM
